How the values were obtained:
Test in all cases: BLI
Conditions in all cases: both partners purified
[1] = target: influenza hemagglutinin (HA) from H1N1 A/California/07/2009 (Influenza A virus H1N1 …, UniProt C3W5X2, biotinylated)
[2] = target: T1, biotinylated αTSR domain of P. falciparum circumsporozoite protein (Plasmodium falciparum 3D7 (by PDB 7RXI))
T1 construct: also called P. falciparum CSP; C-terminal αTSR domain of P. falciparum circumsporozoite protein
T1 chain: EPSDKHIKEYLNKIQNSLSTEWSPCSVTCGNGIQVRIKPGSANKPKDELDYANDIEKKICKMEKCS

[3] = target: T2, His6-tagged SARS-CoV-2 receptor-binding domain (SARS-CoV-2, UniProt P0DTC2)
T2 construct: source: High Five cells, purified (Ni-NTA, size exclusion)

B1: 5J8 Fab (WT) (Fab, V domains shown)
VH: EVQLVESGPGLVKPSDILSLTCAVSGYSISSNYYWGWIRQPPGKGLEWIGSIYHSGSTYYKPSLESRLGISVDTSKNQFSLKLSFVSAADTAVYYCARHVRSGYPDTAYYFDKWGQGTLVTVSS
VL: SYVLTQPPSVSVAPGETARISCGGNNIGTKVLHWYQQTPGQAPVLVVYDDSDRPSGIPERFSGSNSGNTATLTISRVEVGDEADYYCQVWDISTDQAVFGGGTKLTVL
notes: also called IGLV3–21 antibody 5J8; source: ExpiCHO, transiently co-transfected, purified (CaptureSelect CH1-XL)
- binding result [1]: binds

B2: Fab234 (WT) (Fab, V domains shown)
VH: EVQLVESGGGLVKPGGSLRLSCAASGFNFSTHIMNWVRQAPGKGLEWVSSISSSGTYIYYADSMKGRFTISRDNPKNSLYLQMNSLRAEDTAVYYCARARGFIQFHYYMDVWGKGTTVAVSS
VL: SYVLTQPPSVSVAPGKTARITCGGNNIGSKSVHWHQQRPGQAPVLVVYDDKIRPSGIPERFSGSNSGNTATLIISRVEAGDEADYYCQVWHSSSDPVVFGGGTKLTVL
- binding result [2]: binds

B3: GAR12 Fab VL D50K (Fab, V domains shown)
VH: EVQLVQSGGGLVQPGGSLRLSCAASGFTFSSYAMSWVRQAPGKGLEWVLSISGSGGSTYYADSVKGRFTISIDNSKKTVYLQMNSLRAEDTAVYYCAKSGEQQLVQAEYFHHWGQGTLVTVSS
VL: DIQMTQSPSTLSASVGDRVTITCRASQSIGRWLAWYQQKPGKAPKLLIYKASSLESGVPSRFSGSGFGTEFTLTISSLQPDDFATYYCQQCDSLLTFGGGTKLEIK
notes: also called GAR12 VL D50K; source: ExpiCHO, transiently co-transfected, purified (CaptureSelect CH1-XL)
- fold change in KD against the wild type [3]: 44 fold

Reference: article doi:10.1101/2023.06.06.543969 (bioRxiv, 2023)
